Data: patent US20250051454A1 (DUKE UNIVERSITY, published 2025)
Positions count from the first letter of the chain named.

B1: CA169 (antibody, V domains shown)
VH: EVQLVESGGGLVKPGGSLRLSCAASGFTFSSYSMNWVRQAPGKGLEWVSSISSSSSYIYYADSVKGRFTISRDNAKNSLYLQMNSLRAEDTAVYYCASGVLLEAFDYWGQGTLVTVSS
VL: SYVLTQPPSVSVAPGQTARITCGGNNIGSKSVHWYQQKPGQAPVLVVYDDSDRPSGIPERFSGSNSGNTATLTISRVEAGDEADYYCQVWDSSSDHVVFGGGTKLTVL
B2: CA178 (antibody, V domains shown)
VH: QVQLVQSGAEVKKPGSSVKVSCKASGGTFSSYAISWVRQAPGQGLEWMGGIIPIFGTANYAQKFQGRVTITADESTSTAYMELSSLRSEDTAVYYCARDYGGSYYYEYFQHWGQGTLVTVSS
VL: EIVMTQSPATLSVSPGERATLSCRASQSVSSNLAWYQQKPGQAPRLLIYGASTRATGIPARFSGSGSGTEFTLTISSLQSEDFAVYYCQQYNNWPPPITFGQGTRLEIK
B3: CA168 (antibody, V domains shown)
VH: QVQLVQSGAEVKKPGSSVKVSCKASGGTFSSYAISWVRQAPGQGLEWMGGIIPIFGTANYAQKFQGRVTITADKSTSTAYMELSSLRSEDTAVYYCARALTYYDFPDYGMDVWGQGTTVTVSS
VL: QSALTQPPSASGSPGQSVTISCTGTSSDVGGYNYVSWYQQHPGKVPKLMIYEVTKRPSGVPDRFSGSKSGNTASLTVSGLQAEDEADYYCSSYAGSNNLVFGGGTKLTVL
B4: CA173 (antibody, V domains shown)
VH: EVQLVESGGGLVKPGGSLRLSCAASGFTFSSYSMNWVRQAPGEGLEWVSSISSSSTYIYYADSVKGRFTISRDNAKNSLYLQMNSLRAEDTAVYYCARDRPAGSSSLGSGYFDLWGRGTLVTVSS
VL: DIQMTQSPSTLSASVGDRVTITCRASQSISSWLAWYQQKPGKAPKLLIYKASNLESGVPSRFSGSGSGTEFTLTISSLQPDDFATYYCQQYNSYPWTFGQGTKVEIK
B5: CA166 (antibody, V domains shown)
VH: EVQLVESGGGLVKPGGSLRLSCAASGFTFSSYSMNWVRQAPGKGLEWVSSISSSSSYIYYADSVKGRFTISRDNAKNSLYLQMNSLRAEDTAVYYCARVMITFGGADYWGQGTLVTVSS
VL: DIQMTQSPSSLSASVGDRVTITCRASQNINTYLNWYQKRPGIAPKLLIYGASSLQSGVPSRFSGSGSGTDFTLTISSLQPEDFATYYCQQYHTSPLTFGGGTPVDIK
B6: CA170 (antibody, V domains shown)
VH: B5 VH with V99D, M100R, I101D, T102L, F103L, G104D, G105A, A106F, Y108I, L114M
VL: SYVLTQPPSVSVAPGQTARITCGGNNIGSKSVHWYQQKPGQAPVLVVYDDSDRPSGIPERFSGSNSGNTATLTISRVEAGDEADYYCQVWDSSSDHPWVFGGGTKLTVL
B7: CA175 (antibody, V domains shown)
VH: EVQLVESGGGLVQPGGSLRLSCAASGFTFSTYPMNWVRQAPGKGLEWVSYISSSSSTIYYADCVKGRFTISRDNAKNSLYLQMNSLRDEDTAVYYCARYYIAYGMDVWGQGTTVTVSS
VL: DIQMTQSPSSMSASVGDRVTITCRASQGISNYLAWFQQKPGKAPKRLIYGASSLHRGVPSRFSGSGSGTEFTLTITSLQPEDFATYYCLQHNTYPRTFGQGTKVEIK
B8: CA176 (antibody, V domains shown)
VH: QVQLVESGGGVVQPGRSLRLSCAASGFTFSSYGMHWVRQAPGKGLEWVAVISYDGSNKYYADSVKGRFTISRDNSKNTLYLQMNSLRAEDTAVYYCAKDEGSSDFWSGYYASFDYWGQGTLVTVSS
VL: DIQMTQSPISLSASVGDRVTITCRASQDISNYLTWYQQKPGKAPKLLIYAASSLQSGVPSRFSGSGSGTDFTLTISNLQPEDFATYYCQQNYSYPCTFGQGTKVEIK
B9: CA162 (antibody, V domains shown)
VH: QVQLVESGGGLVKPGGSLRLSCAASGFTFSDYYMSWIRQAPGKGLEWVSYISSSSSYTNYADSVKGRFTISRDNAKNSLYLQMNSLRAEDTAVYYCARGRTMFKNYYDSSGYYGYFDYWGQGTLVTVSS
VL: DIQMTQSPSSVSASVGDRVTITCRASQGISSWLAWYQQKPGKAPKLLIYAASSLQSGVPSRFSGSGSGTDFTLTISSLQPEDFATYYCQQANSPLTFGGGTKVEIK
B10: CA177 (antibody, V domains shown)
VH: QVQLQESGPGLVKPSETLSLTCTVSGGSISSYYWSWIRQPPGKGLEWIGYIYYSGSTNYNPSLKSRVTISVDTSKNQFSLKLSSVTAADTAVYYCASHDYTDHAAGYWGQGTLVTVSS
VL: not shown
B11: CA180 (antibody, V domains shown)
VH: QVQLVQSGAEVKKPGASVKVSCKASGYTFTSYGISWVRQAPGQGLEWMGWISAYNGNTNYAQKLQGRVTMTTDTSTSTAYMELRSLRSDDTAVYYCARDLGYSSSWYTSNWFDPWGQGTLVTVSS
VL: QSALTQPASVSGSPGQSITISCTGTSSDVGSYNLVSWYQQHPGKAPKLMIYEGSKRPSGVSNRFSGSKSGNTASLTISGLQAEDEADYYCCSYAGSSTVVFGGGTKLTVL

The binders below were run against T1, HLA-E-RL9SIV single chain trimer on transfected 293T cells (human, UniProt P61769 21-119; P13747 22-358) (assay: flow cytometry, SCT-transfected 293T cells, MFI bar chart [E]).
T1 construct: also called control HLA-E-peptide complex
B1: no binding (tested: 2 µg/ml).
B2: no binding (tested: 2 µg/ml).
B3: no binding (tested: 2 µg/ml).
B4: no binding (tested: 2 µg/ml).
B5: no binding (tested: 2 µg/ml).
B6: no binding (tested: 2 µg/ml).
B7: no binding (tested: 2 µg/ml).
B8: no binding (tested: 2 µg/ml).
B9: no binding (tested: 2 µg/ml).
B10: no binding (tested: 2 µg/ml).
B11: no binding (tested: 2 µg/ml).

The binders below were run against T2, HLA-E-RL9HIV single chain trimer on transfected 293T cells (human, UniProt P61769 21-119; P13747 22-358) in the same assay as above.
T2 construct: also called control HLA-E-peptide complex
B1: no binding (tested: 2 µg/ml).
B2: no binding (tested: 2 µg/ml).
B3: no binding (tested: 2 µg/ml).
B4: no binding (tested: 2 µg/ml).
B5: no binding (tested: 2 µg/ml).
B6: no binding (tested: 2 µg/ml).
B7: no binding (tested: 2 µg/ml).
B8: no binding (tested: 2 µg/ml).
B9: no binding (tested: 2 µg/ml).
B10: no binding (tested: 2 µg/ml).
B11: no binding (tested: 2 µg/ml).
